# Results as given in PMC11374805.
# Biological target: peptidase domain (PD) of human ACE2 (human) (UniProt Q9BYF1)
# Assay: BLI
substance,measurement,value
RBD (319-541 a.a) of S protein from SARS-CoV-2 Omicron variant BA.2 (domain or fragment),Kd,16 nM
